Results on one molecule are retold here after US20030023034A1 (published 2003).

The assay concerns the target T1, cyclophilin B (GenBank Accession No. M60857) (UniProt P23284 34-216, limits assumed).
T1 construct: Yeast two-hybrid fusion; also called CYC-B
As to the kind of experiment: yeast matrix mating test (two-hybrid), growth on selective medium. The procedure:
Briefly, cells were grown until mid-to-late log phase on media that selected for the presence of the appropriate plasmids. The two mating strains, alpha and a, were then, diluted in YAPD media, filtered onto nitrocellulose membranes, and incubated at 30 degrees Celsius for 6-8 hours. The cells were then transferred to media selective for the desired diploids, i.e., yeast harboring reporter genes for beta-galactosidase, uracil auxotrophy, and histidine auxotrophy, and expression of the vectors encoding the bait and prey. The mating products were plated on SC (synthetic complete) (Sambrook et al., 1989, A Laboratory Manual, 2nd Ed., Cold Spring Harbor Press, New York) media lacking adenine and lysine (to select for successful mating), leucine and tryptophan (to select for expression of genes encoded by both plasmids), and uracil and histidine (to select for protein interactions). This medium is herein referred to as SCS medium, for SC Selective medium.
To test for the specificity of p27(Kip1):FKBP-12 interaction, two general tests were first performed. In the first instance, YULH cells expressing FKBP-12 were created and plated on SC (synthetic complete) −Ura plates, grown for 1-2 days, and examined for growth. […]

T1 sequence (P23284 34-216 limits assumed, one chain of several): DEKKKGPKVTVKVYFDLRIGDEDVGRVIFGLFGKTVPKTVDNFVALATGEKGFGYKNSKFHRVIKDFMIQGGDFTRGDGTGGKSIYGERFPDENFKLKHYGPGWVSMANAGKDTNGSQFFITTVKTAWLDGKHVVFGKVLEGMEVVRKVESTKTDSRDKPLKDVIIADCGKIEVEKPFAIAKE

B1: p27(Kip1) (other)
chain: RDLEKHCRDMEEASQRKWNFDFQNHKPLEGKYEWQEVEKGSLPEFYYRPPRPPKGACKVPAQESQDVSGSRPAAPLIGAPANSEDTHLVDPKTDPSDSQTGLAEQCAGIRKRPATDDSSTQNKRANRTEENVSDGSPNAGSVEQTPKKPGLRRRQT
notes: Yeast two-hybrid fusion expressed in yeast; also called p27(Kip1) bait
In the case of B1, the binding result is “no binding”.
